The values that follow come from the Human Domainome abundance scans (Beltran et al. 2025).

± gives the uncertainty stated by the source.

The nature of the series: abundance fitness (aPCA) (normalised: wild type 0, dead -1); higher = more abundant; growth selection in yeast, the domain comes from the species named. To be noted: Homo sapiens.
As for “DnaJ homolog subfamily B member 1 A12C, P25685”, the abundance fitness was -0.213 ± 0.14.
“DnaJ homolog subfamily B member 1 A12D, P25685” yielded an abundance fitness of -0.38 ± 0.11.
Take “DnaJ homolog subfamily B member 1 A12E, P25685”: the abundance fitness is -0.277 ± 0.13.
Next, “DnaJ homolog subfamily B member 1 A12F, P25685”: -0.346 ± 0.092; “DnaJ homolog subfamily B member 1 A12G, P25685”: -0.421 ± 0.1; “DnaJ homolog subfamily B member 1 A12H, P25685”: -0.175 ± 0.15.
To “DnaJ homolog subfamily B member 1 A12I, P25685” belongs -0.163 ± 0.11.
“DnaJ homolog subfamily B member 1 A12K, P25685” returned an abundance fitness of -0.02 ± 0.077.
Next, “DnaJ homolog subfamily B member 1 A12L, P25685”: -0.179 ± 0.068; “DnaJ homolog subfamily B member 1 A12M, P25685”: -0.139 ± 0.067.
Next, “DnaJ homolog subfamily B member 1 A12N, P25685”: -0.147 ± 0.089; “DnaJ homolog subfamily B member 1 A12P, P25685”: -0.108 ± 0.12; “DnaJ homolog subfamily B member 1 A12Q, P25685”: -0.094 ± 0.094.
To “DnaJ homolog subfamily B member 1 A12R, P25685” belongs -0.147 ± 0.07; to “DnaJ homolog subfamily B member 1 A12S, P25685”, -0.191 ± 0.078.
“DnaJ homolog subfamily B member 1 A12T, P25685” gave an abundance fitness of -0.28 ± 0.088.
Substance “DnaJ homolog subfamily B member 1 A12V, P25685” gave an abundance fitness of -0.145 ± 0.08.
Next, “DnaJ homolog subfamily B member 1 A12Y, P25685”: -0.559 ± 0.46.
To “DnaJ homolog subfamily B member 1 A15C, P25685” belongs -0.056 ± 0.14.
Next, “DnaJ homolog subfamily B member 1 A15D, P25685”: -0.502 ± 0.092; “DnaJ homolog subfamily B member 1 A15E, P25685”: -0.481 ± 0.068.
“DnaJ homolog subfamily B member 1 A15F, P25685” had an abundance fitness of -0.814 ± 0.13.
To “DnaJ homolog subfamily B member 1 A15H, P25685” belongs -0.866 ± 0.15; to “DnaJ homolog subfamily B member 1 A15I, P25685”, -0.69 ± 0.14; to “DnaJ homolog subfamily B member 1 A15K, P25685”, -0.818 ± 0.096.
To “DnaJ homolog subfamily B member 1 A15L, P25685” belongs -0.801 ± 0.071; to “DnaJ homolog subfamily B member 1 A15M, P25685”, -0.627 ± 0.1.
“DnaJ homolog subfamily B member 1 A15N, P25685” displayed an abundance fitness of -0.668 ± 0.14.
To “DnaJ homolog subfamily B member 1 A15P, P25685” belongs -0.702 ± 0.098; to “DnaJ homolog subfamily B member 1 A15Q, P25685”, -0.648 ± 0.12.
Consider “DnaJ homolog subfamily B member 1 A15R, P25685”, for which the abundance fitness is -0.82 ± 0.055.
“DnaJ homolog subfamily B member 1 A15S, P25685” yielded an abundance fitness of -0.109 ± 0.074.
Next, “DnaJ homolog subfamily B member 1 A15T, P25685”: -0.271 ± 0.078.
For the substance “DnaJ homolog subfamily B member 1 A15W, P25685”, the abundance fitness is -1.17 ± 0.085.
Take “DnaJ homolog subfamily B member 1 A15Y, P25685”: the abundance fitness is -1 ± 0.16.
“DnaJ homolog subfamily B member 1 A23C, P25685” displayed an abundance fitness of -0.169 ± 0.11.
Regarding “DnaJ homolog subfamily B member 1 A23D, P25685”, the abundance fitness is -0.852 ± 0.22.
To “DnaJ homolog subfamily B member 1 A23E, P25685” belongs -0.149 ± 0.086; to “DnaJ homolog subfamily B member 1 A23F, P25685”, -0.816 ± 0.1; to “DnaJ homolog subfamily B member 1 A23G, P25685”, -0.184 ± 0.08.
Next, “DnaJ homolog subfamily B member 1 A23H, P25685”: -0.312 ± 0.14; “DnaJ homolog subfamily B member 1 A23I, P25685”: -0.819 ± 0.11; “DnaJ homolog subfamily B member 1 A23K, P25685”: -0.612 ± 0.11.
“DnaJ homolog subfamily B member 1 A23L, P25685” showed an abundance fitness of -0.839 ± 0.053.
For “DnaJ homolog subfamily B member 1 A23M, P25685”, the abundance fitness is -0.328 ± 0.068.
To “DnaJ homolog subfamily B member 1 A23N, P25685” belongs -0.169 ± 0.12.
The substance “DnaJ homolog subfamily B member 1 A23P, P25685” came in with an abundance fitness of -0.917 ± 0.095.
“DnaJ homolog subfamily B member 1 A23Q, P25685” registered an abundance fitness of -0.241 ± 0.13.
Next, “DnaJ homolog subfamily B member 1 A23R, P25685”: -0.442 ± 0.066.
“DnaJ homolog subfamily B member 1 A23S, P25685”: the abundance fitness was -0.159 ± 0.056.
In turn, “DnaJ homolog subfamily B member 1 A23T, P25685” yielded an abundance fitness of -0.339 ± 0.11.
Consider “DnaJ homolog subfamily B member 1 A23W, P25685”, for which the abundance fitness is -0.984 ± 0.09.
Substance “DnaJ homolog subfamily B member 1 A23Y, P25685” gave an abundance fitness of -0.665 ± 0.097.
In turn, “DnaJ homolog subfamily B member 1 A28D, P25685” registered an abundance fitness of -0.521 ± 0.21.
To “DnaJ homolog subfamily B member 1 A28E, P25685” belongs -0.116 ± 0.12; to “DnaJ homolog subfamily B member 1 A28F, P25685”, 0.079 ± 0.14; to “DnaJ homolog subfamily B member 1 A28G, P25685”, -0.106 ± 0.086.
To “DnaJ homolog subfamily B member 1 A28I, P25685” belongs 0.093 ± 0.095; to “DnaJ homolog subfamily B member 1 A28K, P25685”, -0.149 ± 0.083; to “DnaJ homolog subfamily B member 1 A28L, P25685”, -0.032 ± 0.065.
In turn, “DnaJ homolog subfamily B member 1 A28M, P25685” returned an abundance fitness of -0.06 ± 0.088.
Substance “DnaJ homolog subfamily B member 1 A28N, P25685” gave an abundance fitness of -0.119 ± 0.12.
The substance “DnaJ homolog subfamily B member 1 A28P, P25685” displayed an abundance fitness of -0.953 ± 0.16.
To “DnaJ homolog subfamily B member 1 A28Q, P25685” belongs 0.084 ± 0.16; to “DnaJ homolog subfamily B member 1 A28R, P25685”, 0.033 ± 0.09; to “DnaJ homolog subfamily B member 1 A28S, P25685”, -0.172 ± 0.11.
Next, “DnaJ homolog subfamily B member 1 A28T, P25685”: -0.094 ± 0.1; “DnaJ homolog subfamily B member 1 A28V, P25685”: 0.043 ± 0.081.
Regarding “DnaJ homolog subfamily B member 1 A28W, P25685”, the abundance fitness was found to be 0.024 ± 0.11.
For the substance “DnaJ homolog subfamily B member 1 A28Y, P25685”, the abundance fitness was 0.007 ± 0.14.
“DnaJ homolog subfamily B member 1 A41D, P25685”: the abundance fitness was -0.036 ± 0.13.
Substance “DnaJ homolog subfamily B member 1 A41E, P25685” returned an abundance fitness of -0.009 ± 0.11.
For “DnaJ homolog subfamily B member 1 A41F, P25685”, the abundance fitness is -0.128 ± 0.25.
Next, “DnaJ homolog subfamily B member 1 A41G, P25685”: -0.104 ± 0.067; “DnaJ homolog subfamily B member 1 A41H, P25685”: -0.24 ± 0.096; “DnaJ homolog subfamily B member 1 A41I, P25685”: -0.132 ± 0.17.
Next, “DnaJ homolog subfamily B member 1 A41K, P25685”: -0.178 ± 0.092; “DnaJ homolog subfamily B member 1 A41L, P25685”: -0.168 ± 0.066; “DnaJ homolog subfamily B member 1 A41M, P25685”: -0.214 ± 0.089.
Next, “DnaJ homolog subfamily B member 1 A41N, P25685”: -0.164 ± 0.17.
For the substance “DnaJ homolog subfamily B member 1 A41P, P25685”, the abundance fitness is -0.432 ± 0.11.
“DnaJ homolog subfamily B member 1 A41Q, P25685” registered an abundance fitness of -0.134 ± 0.077.
Next, “DnaJ homolog subfamily B member 1 A41R, P25685”: -0.181 ± 0.07; “DnaJ homolog subfamily B member 1 A41S, P25685”: -0.146 ± 0.072; “DnaJ homolog subfamily B member 1 A41T, P25685”: -0.055 ± 0.068.
Take “DnaJ homolog subfamily B member 1 A41V, P25685”: the abundance fitness was -0.02 ± 0.075.
To “DnaJ homolog subfamily B member 1 A41W, P25685” belongs -0.255 ± 0.064.
To “DnaJ homolog subfamily B member 1 A41Y, P25685” belongs -0.631 ± 0.43.
Next, “DnaJ homolog subfamily B member 1 A49C, P25685”: 0.049 ± 0.12.
As to “DnaJ homolog subfamily B member 1 A49D, P25685”, the abundance fitness was -0.086 ± 0.12.
Next, “DnaJ homolog subfamily B member 1 A49E, P25685”: 0.126 ± 0.094.
